From patent US20160222458A1 (AGENCY FOR SCIENCE TECHNOLOGY AND RESEARCH, published 2016)

Target: T1, Aurora kinase A (AURKA) (UniProt O14965 1-403)
T1 construct: also called AURKA-A; STK6
T1 sequence (looked up): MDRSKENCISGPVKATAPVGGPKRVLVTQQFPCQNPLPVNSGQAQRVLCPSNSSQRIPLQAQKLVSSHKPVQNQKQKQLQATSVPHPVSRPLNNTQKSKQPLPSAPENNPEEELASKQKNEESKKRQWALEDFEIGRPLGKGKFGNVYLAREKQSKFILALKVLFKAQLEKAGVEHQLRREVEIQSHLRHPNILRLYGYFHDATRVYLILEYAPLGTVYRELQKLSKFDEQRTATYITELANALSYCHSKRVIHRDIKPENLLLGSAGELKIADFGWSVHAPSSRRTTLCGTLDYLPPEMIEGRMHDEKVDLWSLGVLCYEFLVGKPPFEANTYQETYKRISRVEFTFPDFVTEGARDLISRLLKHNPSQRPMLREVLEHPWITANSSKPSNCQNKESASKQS
Assay: co-immunoprecipitation from MDA-MB-436 lysate with anti-PRR11 antibody on CNBr sepharose, Western blot
Text: Pelleted cells were lysed using lysis buffer (commercial Bio-Rad) and estimated proteins (Bio-Rad protein assay) and loaded equal amount of protein and separated by SDS-PAGE [28-30]. After transfer, the membranes were probed with commercial rabbit polyclonal antibodies of Actin, C6orf173, AURKA, MELK and PRR11 (Cell sciences, Sigma Aldrich). Commercial mouse monoclonal antibody available for BRRN1 was obtained from Cell Signalling. Commercial rabbit polyclonal antibody of E2F1 obtained from Thermo Scientific. B-Actin (cell signalling) was used as internal control to relatively compare the expression levels of 6-TAGs genes. Secondary antibodies (anti-rabbit and anti-mouse IgG horseradish peroxidase-conjugated) were purchased from GE Healthcare Bio-Sciences AB. Proteins were visualized using an enhanced chemiluminescence (ECL) reagent kit (GE Healthcare Bio-Sciences AB). Densitometry analysis of Western Blot images was done using ImageJ open source software.
For the immunoprecipiation 5 ug of the antibodies (rabbit anti-PRR11 and mouse anti-BRRN1) were coupled to the CN-Br sepharose 4 Fast Flow according manufacturer protocol (GE Healthcare Bio-Sciences AB) and such supports were used to capture the corresponding proteins from the NP40 cell lysates (usually 1×10^7 MDA-MB-436 cells were used for one probe). […]

B1: Proline rich 11 (PRR11/FLJ11029) (other, UniProt Q96HE9 1-360, looked up)
chain: MPKFKQRRRKLKAKAERLFKKKEASHFQSKLITPPPPPPSPERVGISSIDISQSRSWLTSSWNFNFPNIRDAIKLWTNRVWSIYSWCQNCITQSLEVLKDTIFPSRICHRELYSVKQQFCILESKLCKLQEALKTISESSSCPSCGQTCHMSGKLTNVPACVLITPGDSKAVLPPTLPQPASHFPPPPPPPPLPPPPPPLAPVLLRKPSLAKALQAGPLKKDGPMQITVKDLLTVKLKKTQSLDEKRKLIPSPKARNPLVTVSDLQHVTLKPNSKVLSTRVTNVLITPGKSQMDLRKLLRKVDVERSPGGTPLTNKENMETGTGLTPVMTQALRRKFQLAHPRSPTPTLPLSTSSFDEQN
notes: also called endogenous PRR11
B1: no binding.
